Numbering of substitutions follows the chain as printed. Names may count otherwise.
B1: ZmHPPDm-F372A-02: nucleotide sequence encoding Zea mays HPPD with F372A; vector DBN11767 (nucleic acid)
DNA: ATGCCACCCACACCCACAGCAGCAGCGGCGGGCGCAGCGGTCGCAGCGGCGTCAGCGGCGGAGCAAGCGGCGTTCAGATTGGTTGGTCACCGCAACTTCGTGAGATTCAATCCTCGCTCAGATAGATTCCATACTCTGGCCTTCCACCATGTTGAGCTTTGGTGCGCTGATGCTGCTTCTGCTGCTGGAAGGTTCAGCTTCGGTTTGGGTGCTCCCCTCGCTGCTAGATCTGATTTGAGCACTGGTAACTCAGCACATGCTTCCCTCCTGCTTAGATCTGGCTCTCTGAGCTTCCTTTTCACTGCTCCATATGCTCATGGTGCTGATGCTGCTACAGCTGCTCTCCCTTCATTCTCCGCTGCTGCTGCTAGGAGATTCGCTGCTGATCACGGATTGGCTGTGAGGGCTGTTGCACTTAGAGTTGCTGATGCTGAGGAGGCCTTCCGCACCTCTGTTGCTGCTGGAGCCAGACCAGCTTTCGGACCTGTTGATCTCGGAAGGGGTTTCCGCCTGGCTGAGGTGGAGCTTTACGGCGATGTGGTTCTGCGCTACGTTAGCTATCCTGATGGTGCTGCTGGTGAACCTTTCCTTCCAGGATTCGAGGGTGTGGCCTCACCAGGTGCCGCTGATTACGGCCTGTCCAGATTCGACCACATTGTTGGAAATGTTCCTGAGCTTGCTCCAGCTGCTGCCTACTTCGCTGGCTTCACCGGATTCCATGAGTTCGCCGAGTTCACCACTGAGGATGTGGGAACTGCTGAGTCTGGTTTGAATAGCATGGTGCTCGCCAACAATTCAGAGAACGTTTTGCTCCCTCTGAATGAGCCCGTGCACGGAACAAAGAGAAGGTCCCAGATTCAAACCTTCTTGGATCACCACGGCGGCCCAGGTGTTCAGCATATGGCTCTCGCCTCCGATGACGTGTTGAGAACCCTCAGGGAGATGCAAGCCAGGTCTGCTATGGGTGGCTTCGAGTTCATGGCCCCACCTACAAGCGATTACTATGATGGTGTGCGCAGAAGGGCTGGCGACGTTCTTACCGAGGCTCAGATCAAGGAGTGCCAAGAGCTGGGCGTGCTTGTTGATAGAGATGACCAGGGAGTTCTGCTTCAAATTGCTCCCAAGCCAGTGGGCGACAGGCCTACTTTGTTCCTCGAGATTATCCAGAGAATCGGATGCATGGAGAGGGATGAGAAGGGTCAGGAGTACCAAAAGGGAGGTTGCGGCGGATTCGGCAAGGGAAATTTCTCACAACTCTTCAAGTCCATCGAGGACTATGAAAAGAGTCTGGAAGCGATGCAGGCAGCAGCAGCAGCAACCGCACAGGGGTCGTGA
modifications: ZmHPPDm-F372A-02 Nucleotide Sequence
notes: vector DBN11767
B2: ZmHPPDm-F383W-02: nucleotide sequence encoding Zea mays HPPD with F383W; vector DBN11768 (nucleic acid)
DNA: B1 DNA with G1117T, C1118T, T1119C, T1151G, C1152G
modifications: ZmHPPDm-F383W-02 Nucleotide Sequence
notes: vector DBN11768

What was measured:
Type in all cases: in vivo
[1] = test system: Arabidopsis thaliana T1 plants; assay: Isoxaflutole tolerance of transgenic Arabidopsis thaliana T1 plants (spray, bleached leaf area grade, damage score); set-up: Scores (pesticide damage): scale not given here; settings: spray, Arabidopsis thaliana T1 plants; for Classification and statistics of the grade of pesticide damage: Grade 0 (number of plants) / Classification and statistics of the grade of pesticide damage: Grade 1 (number of plants) / Classification and statistics of the grade of pesticide damage: Grade 2 (number of plants) / Classification and statistics of the grade of pesticide damage: Grade 3 (number of plants): 16 plants
Method in brief: (§1)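 Damage was assessed by bleaching grade (0 none; 1 <50%; 2 >50%; 3 100% of leaf area) one week after spraying. Sprays on 18-day-old T1 and wild-type plants used field-rate multiples: topramezone 25–200, isoxaflutole 35–280, mesotrione 52.5–420 g ai/ha.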

[2] = test system: Arabidopsis thaliana T1 plants; assay: Mesotrione tolerance of transgenic Arabidopsis thaliana T1 plants (spray, bleached leaf area grade, damage score); set-up: Scores: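 damage score 0-100 computed as Σ(N×S)/(T×M)×100 over grades 0-3 with higher meaning more damage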; settings: Arabidopsis thaliana T1 plants; for Grade 0 (classification and statistics of the grade of pesticide damage; number of plants) / Grade 1 (classification and statistics of the grade of pesticide damage; number of plants) / Grade 2 (classification and statistics of the grade of pesticide damage; number of plants) / Grade 3 (classification and statistics of the grade of pesticide damage; number of plants): 16 plants
Method in brief: as §1

[3] = test system: Arabidopsis thaliana T1 plants; assay: Topramezone tolerance of transgenic Arabidopsis thaliana T1 plants (spray, bleached leaf area grade, damage score); settings: 7 DAT, Table 4; for Classification and statistics of the grade of pesticide damage: Grade 0 / Classification and statistics of the grade of pesticide damage: Grade 1 / Classification and statistics of the grade of pesticide damage: Grade 2 / Classification and statistics of the grade of pesticide damage: Grade 3: number of plants; for Scores: pesticide damage score 0-100
Method in brief: as §1

[4] = isoxaflutole 35 g ai/ha (0.5x field concentration)
[5] = isoxaflutole 70 g ai/ha (1x field concentration)

Molecule | Resistance evaluation [1, 4] | Scores (pesticide damage) [1, 4] | Classification and statistics of the grade of pesticide damage: Grade 0 (number of plants) [1, 4] | Classification and statistics of the grade of pesticide damage: Grade 1 (number of plants) [1, 4] | Classification and statistics of the grade of pesticide damage: Grade 2 (number of plants) [1, 4] | Classification and statistics of the grade of pesticide damage: Grade 3 (number of plants) [1, 4] | Resistance evaluation [1, 5] | Scores (pesticide damage) [1, 5] | Classification and statistics of the grade of pesticide damage: Grade 0 (number of plants) [1, 5] | Classification and statistics of the grade of pesticide damage: Grade 1 (number of plants) [1, 5] | Classification and statistics of the grade of pesticide damage: Grade 2 (number of plants) [1, 5] | Classification and statistics of the grade of pesticide damage: Grade 3 (number of plants) [1, 5] | Resistance evaluation ([2]; mesotrione 52.5 g ai/ha) | Scores ([2]; mesotrione 52.5 g ai/ha) | Grade 0 (classification and statistics of the grade of pesticide damage; number of plants) ([2]; mesotrione 52.5 g ai/ha) | Grade 1 (classification and statistics of the grade of pesticide damage; number of plants) ([2]; mesotrione 52.5 g ai/ha) | Grade 2 (classification and statistics of the grade of pesticide damage; number of plants) ([2]; mesotrione 52.5 g ai/ha) | Grade 3 (classification and statistics of the grade of pesticide damage; number of plants) ([2]; mesotrione 52.5 g ai/ha) | Resistance evaluation ([2]; mesotrione 105 g ai/ha) | Scores ([2]; mesotrione 105 g ai/ha) | other results
B1 | Moderately | 33 | 3 | 10 | 3 | 0 | Poorly | 67 | 0 | 1 | 14 | 1 | Moderately | 31 | 3 | 11 | 2 | 0 | Poorly resistant | 67 | Grade 0 (classification and statistics of the grade of pesticide damage; number of plants) ([2]; mesotrione 105 g ai/ha): 0; Grade 1 (classification and statistics of the grade of pesticide damage; number of plants) ([2]; mesotrione 105 g ai/ha): 1; Grade 2 (classification and statistics of the grade of pesticide damage; number of plants) ([2]; mesotrione 105 g ai/ha): 14; Grade 3 (classification and statistics of the grade of pesticide damage; number of plants) ([2]; mesotrione 105 g ai/ha): 1; Classification and statistics of the grade of pesticide damage: Grade 0 ([3]; topramezone 25 g ai/ha (1×)): 16; Classification and statistics of the grade of pesticide damage: Grade 1 ([3]; topramezone 25 g ai/ha (1×)): 0; Classification and statistics of the grade of pesticide damage: Grade 2 ([3]; topramezone 25 g ai/ha (1×)): 0; Classification and statistics of the grade of pesticide damage: Grade 3 ([3]; topramezone 25 g ai/ha (1×)): 0; Classification and statistics of the grade of pesticide damage: Grade 0 ([3]; topramezone 100 g ai/ha (4×)): 4; Classification and statistics of the grade of pesticide damage: Grade 1 ([3]; topramezone 100 g ai/ha (4×)): 12; Classification and statistics of the grade of pesticide damage: Grade 2 ([3]; topramezone 100 g ai/ha (4×)): 0; Classification and statistics of the grade of pesticide damage: Grade 3 ([3]; topramezone 100 g ai/ha (4×)): 0; Scores ([3]; topramezone 25 g ai/ha (1×)): 0; Scores ([3]; topramezone 100 g ai/ha (4×)): 25; Resistance evaluation ([3]; topramezone 25 g ai/ha (1×)): highly; Resistance evaluation ([3]; topramezone 100 g ai/ha (4×)): moderately
B2 | Poorly | 42 | 2 | 8 | 6 | 0 | Non-resistant | 96 | 0 | 0 | 2 | 14 | Poorly resistant | 63 | 0 | 3 | 12 | 1 | Non-resistant | 98 | Grade 0 (classification and statistics of the grade of pesticide damage; number of plants) ([2]; mesotrione 105 g ai/ha): 0; Grade 1 (classification and statistics of the grade of pesticide damage; number of plants) ([2]; mesotrione 105 g ai/ha): 0; Grade 2 (classification and statistics of the grade of pesticide damage; number of plants) ([2]; mesotrione 105 g ai/ha): 1; Grade 3 (classification and statistics of the grade of pesticide damage; number of plants) ([2]; mesotrione 105 g ai/ha): 15; Classification and statistics of the grade of pesticide damage: Grade 0 ([3]; topramezone 25 g ai/ha (1×)): 2; Classification and statistics of the grade of pesticide damage: Grade 1 ([3]; topramezone 25 g ai/ha (1×)): 9; Classification and statistics of the grade of pesticide damage: Grade 2 ([3]; topramezone 25 g ai/ha (1×)): 5; Classification and statistics of the grade of pesticide damage: Grade 3 ([3]; topramezone 25 g ai/ha (1×)): 0; Classification and statistics of the grade of pesticide damage: Grade 0 ([3]; topramezone 100 g ai/ha (4×)): 0; Classification and statistics of the grade of pesticide damage: Grade 1 ([3]; topramezone 100 g ai/ha (4×)): 4; Classification and statistics of the grade of pesticide damage: Grade 2 ([3]; topramezone 100 g ai/ha (4×)): 7; Classification and statistics of the grade of pesticide damage: Grade 3 ([3]; topramezone 100 g ai/ha (4×)): 5; Scores ([3]; topramezone 25 g ai/ha (1×)): 40; Scores ([3]; topramezone 100 g ai/ha (4×)): 69; Resistance evaluation ([3]; topramezone 25 g ai/ha (1×)): poorly; Resistance evaluation ([3]; topramezone 100 g ai/ha (4×)): non-resistant (non-resistant plants (scores 68-100))
